In one data set the target is T1, BsDusB2 (Bacillus subtilis, UniProt O31546).
T1 construct: gene dus2; monomer about 39 kDa; synthetic gene (Eurofins)
T1 sequence (O31546 1-325): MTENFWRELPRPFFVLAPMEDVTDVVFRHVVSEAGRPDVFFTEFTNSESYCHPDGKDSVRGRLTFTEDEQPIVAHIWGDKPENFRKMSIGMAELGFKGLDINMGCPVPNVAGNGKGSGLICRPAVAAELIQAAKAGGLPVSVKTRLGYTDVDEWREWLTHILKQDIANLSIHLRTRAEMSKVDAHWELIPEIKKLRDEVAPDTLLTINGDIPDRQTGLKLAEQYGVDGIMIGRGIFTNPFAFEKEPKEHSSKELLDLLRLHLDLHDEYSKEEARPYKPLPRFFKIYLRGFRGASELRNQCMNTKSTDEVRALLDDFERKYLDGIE
The data set can be described thus: copurified flavin, UV-visible absorption and fluorescence, SDS release. The format is binding. To be noted: non-covalent.

Another data set concerns the target T2, BsDusB1 (Bacillus subtilis, UniProt P37567).
T2 construct: gene dus1; monomer about 40 kDa; synthetic gene (Eurofins)
T2 sequence (P37567 1-333): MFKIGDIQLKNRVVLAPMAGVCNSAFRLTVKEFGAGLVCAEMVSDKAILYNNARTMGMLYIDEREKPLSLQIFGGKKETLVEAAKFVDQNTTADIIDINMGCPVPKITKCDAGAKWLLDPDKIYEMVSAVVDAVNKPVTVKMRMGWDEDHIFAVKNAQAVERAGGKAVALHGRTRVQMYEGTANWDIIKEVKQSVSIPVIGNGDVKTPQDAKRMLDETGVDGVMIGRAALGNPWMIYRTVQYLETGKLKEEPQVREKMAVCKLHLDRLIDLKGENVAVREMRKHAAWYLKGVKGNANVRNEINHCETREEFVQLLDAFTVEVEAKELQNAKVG
The description is as above. The class given is binding. The note with it: non-covalent.

Substrate in data set [1]: NC(=O)C1=CN([C@@H]2O[C@H](COP(=O)(O)OP(=O)(O)OC[C@H]3O[C@@H](n4cnc5c(N)ncnc54)[C@H](O)[C@@H]3O)[C@@H](O)[C@H]2O)C=CC1
The data set can be described thus: purified protein. The format is biochemical, Bacillus subtilis. To be noted: aerobic (NAD(P)H oxidase, no tRNA mentioned).

Substrate in data set [2]: NC(=O)C1=CN([C@@H]2O[C@H](COP(=O)(O)OP(=O)(O)OC[C@H]3O[C@@H](n4cnc5c(N)ncnc54)[C@H](OP(=O)(O)O)[C@@H]3O)[C@@H](O)[C@H]2O)C=CC1
Nature of the data set: purified protein. The format is biochemical, Bacillus subtilis. To be noted: aerobic (NAD(P)H oxidase, no tRNA mentioned).

As a reminder, the Km is the substrate concentration at which the rate is half of its maximum. As a reminder, the kcat is the number of substrate molecules converted per active site and unit of time at saturation. Usually kcat/Km stands for the turnover number divided by the Michaelis constant.

For the molecule `Cc1cc2nc3c(=O)[nH]c(=O)nc-3n(C[C@H](O)[C@H](O)[C@H](O)COP(=O)(O)O)c2cc1C` [FMN], the “copurified flavin, UV-visible absorption and fluorescence, SDS release” value at BsDusB2 and at BsDusB1 was “both BsDusB enzymes are flavoproteins with the FMN non-covalently bound to the apoprotein” in each case.

B1: BsDusB2 (Bacillus subtilis subsp. subtilis str. 168) (protein)
chain: T1 sequence (O31546 1-325)
notes: monomer about 39 kDa; synthetic gene (Eurofins)
As to B1, the Michaelis constant (Km) in the data set “purified protein [1]” (kcat error missing in the table) amounted to 22 ± 4 µM. In “purified protein [2]”, the Michaelis-Menten constant (Km) came out at 2.1 ± 0.2 µM, the turnover number (kcat) is 0.7 ± 0.1 s⁻¹ and the catalytic efficiency (kcat/Km) is 300000 M⁻¹ s⁻¹.

B2: BsDusB1 (Bacillus subtilis subsp. subtilis str. 168) (protein)
chain: T2 sequence (P37567 1-333)
notes: monomer about 40 kDa; synthetic gene (Eurofins)
With B2, in the data set “purified protein [1]”, the Michaelis constant (Km) is 21 ± 4 µM, the kcat stood at 0.013 ± 0.0014 s⁻¹ and the specificity constant (kcat/Km) was 600 M⁻¹ s⁻¹. In addition, in the data set “purified protein [2]”, the Michaelis-Menten constant (Km) amounted to 18 ± 3 µM, the catalytic constant (kcat) was found to be 0.013 ± 0.002 s⁻¹ and the specificity constant (kcat/Km) is 700 M⁻¹ s⁻¹.
